Square brackets hold non-standard residues; d marks the D form. Ends that are not written are not given here. Nle = CCCC[C@H](N)C(=O)O; Aib = CC(C)(N)C(=O)O
What was measured:
human VPAC2 receptor [1] = target: T1, human VPAC2 receptor (human, UniProt P41587 24-438); assay: filter binding assay, human VPAC2 membranes, displacement of 125I-VIP
T1 construct: whole, on cells; cAMP Alpha screen assay: whole cells
T1 sequence (looked up): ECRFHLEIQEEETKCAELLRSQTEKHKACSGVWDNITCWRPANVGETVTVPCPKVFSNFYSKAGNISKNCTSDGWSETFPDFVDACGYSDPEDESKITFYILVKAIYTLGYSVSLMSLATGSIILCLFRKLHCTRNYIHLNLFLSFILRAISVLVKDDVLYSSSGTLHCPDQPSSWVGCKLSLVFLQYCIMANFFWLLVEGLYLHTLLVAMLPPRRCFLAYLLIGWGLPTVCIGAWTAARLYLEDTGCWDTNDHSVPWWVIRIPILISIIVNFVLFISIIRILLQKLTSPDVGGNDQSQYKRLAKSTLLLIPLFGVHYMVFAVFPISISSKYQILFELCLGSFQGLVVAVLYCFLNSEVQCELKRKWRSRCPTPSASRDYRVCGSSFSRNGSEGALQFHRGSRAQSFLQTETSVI
Description: The assay plate is filled with 25 μL assay buffer, 25 μL membranes (2.5 μg) suspended in assay buffer, 25 μL compound (agonist) in assay buffer, and 25 μL tracer (about 40000 cpm) in assay buffer. The filled plate is incubated for 1 hour with shaking.
The transfer from assay plate to filter plate is conducted. The blocking buffer is aspirated by vacuum filtration and washed two times with flush buffer. 90 μL is transferred from the assay plate to the filter plate. The 90 μL transferred from assay plate is aspirated and washed three times with 200 μL flush buffer. The plastic support is removed. It is dried for 1 hour at 60° C. 30 μL Microscint is added. The count is performed.

rat VPAC1 receptor = target: T2, rat VPAC1 receptor (rat, UniProt P30083 31-459); assay: cell-based or functional assay
T2 sequence (looked up): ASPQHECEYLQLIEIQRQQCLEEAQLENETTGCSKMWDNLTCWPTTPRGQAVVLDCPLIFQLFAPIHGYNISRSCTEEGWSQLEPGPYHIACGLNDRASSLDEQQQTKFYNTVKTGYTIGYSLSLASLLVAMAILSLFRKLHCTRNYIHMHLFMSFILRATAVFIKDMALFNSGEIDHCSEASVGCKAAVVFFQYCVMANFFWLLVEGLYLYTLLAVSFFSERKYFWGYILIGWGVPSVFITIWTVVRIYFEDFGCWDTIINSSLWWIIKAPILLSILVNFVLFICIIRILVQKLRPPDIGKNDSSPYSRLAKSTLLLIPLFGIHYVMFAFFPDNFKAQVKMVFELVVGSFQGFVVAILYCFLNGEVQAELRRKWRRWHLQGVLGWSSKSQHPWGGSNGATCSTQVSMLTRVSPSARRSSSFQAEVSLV

rat VPAC2 receptor = target: T3, rat VPAC2 receptor (rat, UniProt P35000 23-437); assay: cell-based or functional assay
T3 sequence (looked up): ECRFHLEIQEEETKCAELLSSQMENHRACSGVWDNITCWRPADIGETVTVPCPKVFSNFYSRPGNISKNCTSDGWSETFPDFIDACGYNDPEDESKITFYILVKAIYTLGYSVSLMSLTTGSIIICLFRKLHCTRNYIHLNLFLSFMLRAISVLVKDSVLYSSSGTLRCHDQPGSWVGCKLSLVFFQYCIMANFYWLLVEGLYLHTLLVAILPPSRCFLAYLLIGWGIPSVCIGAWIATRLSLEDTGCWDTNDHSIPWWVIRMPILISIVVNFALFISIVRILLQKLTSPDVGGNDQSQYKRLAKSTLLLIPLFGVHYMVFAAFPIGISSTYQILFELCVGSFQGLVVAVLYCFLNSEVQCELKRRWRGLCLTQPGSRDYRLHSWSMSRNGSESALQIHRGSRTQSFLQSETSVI

human VPAC2 receptor [2] = target: T1, human VPAC2 receptor; assay: cell-based or functional assay

Binder: HSDAVFTENYTKLR[Aib]Q[Nle]AAKKYLNDLK[Aib]KGGPSSGAPPPC (also: further groups not given here) [P348 (cyclic PEGylated VPAC2 receptor peptide agonist)]
- IC50 (human VPAC2 receptor [1]): 3.54 nM
- EC50 for cAMP generation, DiscoveRx, CHO-PO cells (rat VPAC1 receptor): 36.9 nM
- EC50 for cAMP generation, DiscoveRx, CHO-PO cells (rat VPAC2 receptor): 3.26 nM
- EC50 for cAMP generation, Alpha screen (human VPAC2 receptor [2]): 5.82 nM

Binder: HSDAVFTENYTKL[Aib]KQ[Nle]AAKKYLNDLKKGGPSSGAPPPC (ends and bridges not checked; also: further groups not given here) [P257 (cyclic PEGylated VPAC2 receptor peptide agonist)]
- IC50 (human VPAC2 receptor [1]): 32.7 nM
- EC50 for cAMP generation, DiscoveRx, CHO-PO cells (rat VPAC1 receptor): > 1000 nM
- EC50 for cAMP generation, DiscoveRx, CHO-PO cells (rat VPAC2 receptor): 37.9 nM
- EC50 for cAMP generation, Alpha screen (human VPAC2 receptor [2]): 42.2 nM
